Assay results: the PETadex activity labels (doi:10.1021/acsomega.4c04843)
Numbering of substitutions follows the chain as printed.

B1: unnamed (protein)
chain: MFRFHIVSALLTLFIAVPSQAHDVGQREIKISGAEPGRNLEVSVWYPAAIDGKATLIGDNIIFKGAPAVIDATPEKGSFPLLVMSHGSGGRAQGMAWLATELVKAGIIVAAPNHPGTTSGDSTPQDTPKIWQRTGDLSAVIDTMTTDPAWSGIIDKNKISVLGFSLGGAAAMEIAGARANLEAYARYCDTYGKWDCAWYAGGIGYRDDKQIKVDKVDLRSVDKSRFEQSNLDRRIASAIMIDPGLAQAYDAQSLASISIPMSFINLGEVETIPTGVVADKLASITPQGTYVTVAGATHFSFLPECKKGAADRLKSAGEVDPICSDDARRPRADIHADITKLVLKALQSMPKT
B2: unnamed (protein)
chain: B1 chain with L166M, F299I
B3: unnamed (protein)
chain: B1 chain with L166M, F299W
B4: unnamed (protein)
chain: B1 chain with L166M, A294D
B5: unnamed (protein)
chain: MSNPYQRGPNPTRSALTADGPFSVATYTVSRLSVSGFGGGVIYYPTGTSLTFGGIAMSPGYTADASSLAWLGRRLASHGFVVLVINTNSRFDGPDSRASQLSAALNYLRTSSPSAVRARLDANRLAVAGHSMGGGGTLRIAEQNPSLKAAVPLTPWHTDKTFNTSVPVLIVGAEADTVAPVSQHAIPFYQNLPSTTPKVYVELCNASHIAPNSNNAAISVYTISWMKLWVDNDTRYRQFLCNVNDPALCDFRTNNRHCQLEHHHHHH
B6: unnamed (protein)
chain: MMGYITAHDGTNLYVEDVGFGEPIVFLHGWPANNNMFEYQKNALVEAGYRYIGIDFRGYGKSDAPATGYDYETMASDVHMVVYGLGLKNFTLVGFSMGGAIAVRYAADYKEDGLNKLVLAGAAAPIFTQRADYPYGMTTDEVDALIDDTRADRPKMLEGFGEIFFEKEHSKPMQNWFHHLALVASSHGTIASAQALRDEDLRDALPKIDVETLIIHGVHDKICPFAFAEQMEQGISNARIERFEESGHGTVLDEREKFNDTLLQFVQ

Substrate: pNPB
Experiment: Proxy for plastic degradation [p-nitrophenol (pNP) release]
Conditions: pH 7.4; 37 °C

Protein | Proxy for plastic degradation [U/mL]
B1 | 255
B6 | 245

Same assay, conditions: pH 7.4; 42 °C

Protein | Proxy for plastic degradation [U/mL]
B1 | 330
B6 | 300

Substrate: PET
Experiment: Proxy for plastic degradation [Released monomer concentration (HPLC/LC-MS) (TPA)]
Conditions: pH 8

Protein | Proxy for plastic degradation [mM/mg]
B1 | 0.8
B2 | 1.5
B3 | 2.3
B4 | 2.6
B5 | 3
B6 | 3.7
